# Values of other authors in patent US5916869A, “Method of treating birds in ovo” (North Carolina State University, priority 1997, dated 1999).
# B1: recombinant bovine growth hormone (protein, UniProt P01246 27-217, looked up)
# Somatotropin: AFPAMSLSGLFANAVLRAQHLHQLAADTFKEFERTYIPEGQRYSIQNTQVAFCFSETIPAPTGKNEAQQKSDLELLRISLLLIQSWLGPLQFLSRVFTNSLVFGTSDRVYEKLKDLEEGILALMRELEDGTPRAGQILKQTYDKFDTNMRSDDALLKNYGLLSCFRKDLHKTETYLRVMKCRRFGEASCAF
# notes: recombinant bovine growth hormone injected into sheep in a cited study
# System: sodium-dependent duodenal active transport
# Settings: sheep, injected
molecule,measurement,value
B1,increase of sodium-dependent duodenal active transport of glucose,approximately 60%
same,increase of transport of proline,approximately 30%
